Reference: paper PMC11077064, “The origin recognition complex requires chromatin tethering by a hypervariable intrinsically disordered region that is functionally conserved from sponge to man”

Tests used:
DmOrc1 IDR [1] = target: T1, DmOrc1 IDR (Drosophila melanogaster, UniProt O16810 187-549); assay: EMSA; unphosphorylated, compared with pOrc1IDR; label not stated; EMSA: 50 mM HEPES pH 7.5, 150 mM K-glutamate, 10% glycerol, 1 mM BME, 2 nM DNA, RT 20 min, 1% agarose; FP: same with 150 or 300 mM K-glutamate, 5 mM MgOAc, 0 or 1 mM ATP, RT 30 min; conditions: protein: recombinant; tags: His6-MBP removed by TEV; blunt (60-bp duplex)
T1 sequence: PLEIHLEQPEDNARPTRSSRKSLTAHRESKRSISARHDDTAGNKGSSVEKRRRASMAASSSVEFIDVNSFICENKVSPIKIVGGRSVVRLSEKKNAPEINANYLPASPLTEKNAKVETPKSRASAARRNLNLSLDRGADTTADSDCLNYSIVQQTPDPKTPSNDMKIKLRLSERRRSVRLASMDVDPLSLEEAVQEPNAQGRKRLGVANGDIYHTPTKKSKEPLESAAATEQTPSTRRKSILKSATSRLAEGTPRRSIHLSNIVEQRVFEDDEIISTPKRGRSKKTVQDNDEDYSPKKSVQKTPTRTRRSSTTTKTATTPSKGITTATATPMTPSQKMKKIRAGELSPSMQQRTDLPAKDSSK

DmOrc1 IDR [2] = target: T1, DmOrc1 IDR; assay: EMSA; no ATP; text says FITC, legend Cy5; EMSA: 50 mM HEPES pH 7.5, 150 mM K-glutamate, 10% glycerol, 1 mM BME, 2 nM DNA, RT 20 min, 1% agarose; FP: same with 150 or 300 mM K-glutamate, 5 mM MgOAc, 0 or 1 mM ATP, RT 30 min; conditions: protein: recombinant; tags: His6-MBP removed by TEV; blunt (60-bp duplex)
DmOrc1 IDR delta P = target: T2, DmOrc1 IDR delta P (Drosophila melanogaster, UniProt O16810 187-549, S263A;S293A;T304A;T341A;T346A;T401A;T419A;T439A;T463A;S481A;T489A;T505A;T516A;T5 …); assay: EMSA; 600 nM; EMSA: 50 mM HEPES pH 7.5, 150 mM K-glutamate, 10% glycerol, 1 mM BME, 2 nM DNA, RT 20 min, 1% agarose; FP: same with 150 or 300 mM K-glutamate, 5 mM MgOAc, 0 or 1 mM ATP, RT 30 min; conditions: protein: recombinant; blunt (60-bp duplex)
T2 sequence: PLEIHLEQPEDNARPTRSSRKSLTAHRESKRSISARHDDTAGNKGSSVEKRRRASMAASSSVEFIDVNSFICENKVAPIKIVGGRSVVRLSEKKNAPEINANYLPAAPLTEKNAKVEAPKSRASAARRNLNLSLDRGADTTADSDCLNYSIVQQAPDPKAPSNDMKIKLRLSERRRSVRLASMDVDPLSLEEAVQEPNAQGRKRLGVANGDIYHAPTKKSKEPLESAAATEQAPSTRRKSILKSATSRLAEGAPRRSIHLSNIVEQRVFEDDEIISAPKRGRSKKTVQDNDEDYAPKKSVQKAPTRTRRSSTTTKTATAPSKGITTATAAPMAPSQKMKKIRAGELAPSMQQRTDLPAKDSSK

DmOrc1 IDR delta1 = target: T3, DmOrc1 IDR delta1 (Drosophila melanogaster, UniProt O16810 247-549, del187-246); assay: EMSA; EMSA: 50 mM HEPES pH 7.5, 150 mM K-glutamate, 10% glycerol, 1 mM BME, 2 nM DNA, RT 20 min, 1% agarose; FP: same with 150 or 300 mM K-glutamate, 5 mM MgOAc, 0 or 1 mM ATP, RT 30 min; conditions: protein: recombinant; tags: His6-MBP removed by TEV; blunt (60-bp duplex)
T3 sequence: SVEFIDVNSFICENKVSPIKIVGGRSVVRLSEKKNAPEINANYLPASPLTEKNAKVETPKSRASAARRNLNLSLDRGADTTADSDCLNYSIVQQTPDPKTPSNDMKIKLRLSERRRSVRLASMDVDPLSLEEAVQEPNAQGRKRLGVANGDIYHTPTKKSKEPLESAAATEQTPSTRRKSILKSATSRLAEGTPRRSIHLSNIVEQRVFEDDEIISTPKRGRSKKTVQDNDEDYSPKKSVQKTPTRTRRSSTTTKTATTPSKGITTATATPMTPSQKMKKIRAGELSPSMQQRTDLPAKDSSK

DmOrc1 IDR delta5 = target: T4, DmOrc1 IDR delta5 (Drosophila melanogaster, UniProt O16810 187-549, del427-486); assay: as above; conditions: protein: recombinant; tags: His6-MBP removed by TEV; blunt (60-bp duplex)
T4 sequence: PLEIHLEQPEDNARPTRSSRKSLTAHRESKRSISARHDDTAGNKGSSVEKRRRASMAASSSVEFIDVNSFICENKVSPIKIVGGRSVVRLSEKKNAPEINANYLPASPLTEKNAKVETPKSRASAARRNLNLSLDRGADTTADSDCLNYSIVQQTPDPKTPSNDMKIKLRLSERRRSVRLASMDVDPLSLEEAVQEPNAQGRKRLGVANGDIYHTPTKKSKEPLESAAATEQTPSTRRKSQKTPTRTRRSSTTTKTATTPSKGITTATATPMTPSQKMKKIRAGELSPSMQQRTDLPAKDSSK

DmOrc1 IDR delta3 = target: T5, DmOrc1 IDR delta3 (Drosophila melanogaster, UniProt O16810 187-549, del307-366); assay: as above; conditions: protein: recombinant; tags: His6-MBP removed by TEV; blunt (60-bp duplex)
T5 sequence: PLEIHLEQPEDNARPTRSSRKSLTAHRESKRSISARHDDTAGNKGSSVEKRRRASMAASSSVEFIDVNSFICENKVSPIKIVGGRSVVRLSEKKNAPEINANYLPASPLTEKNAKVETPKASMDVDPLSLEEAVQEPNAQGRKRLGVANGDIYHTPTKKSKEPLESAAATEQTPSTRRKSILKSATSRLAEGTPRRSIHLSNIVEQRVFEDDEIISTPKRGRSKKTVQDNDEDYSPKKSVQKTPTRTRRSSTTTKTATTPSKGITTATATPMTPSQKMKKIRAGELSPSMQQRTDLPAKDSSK

DmOrc1 IDR delta2 = target: T6, DmOrc1 IDR delta2 (Drosophila melanogaster, UniProt O16810 187-549, del247-306); assay: as above; conditions: protein: recombinant; tags: His6-MBP removed by TEV; blunt (60-bp duplex)
T6 sequence: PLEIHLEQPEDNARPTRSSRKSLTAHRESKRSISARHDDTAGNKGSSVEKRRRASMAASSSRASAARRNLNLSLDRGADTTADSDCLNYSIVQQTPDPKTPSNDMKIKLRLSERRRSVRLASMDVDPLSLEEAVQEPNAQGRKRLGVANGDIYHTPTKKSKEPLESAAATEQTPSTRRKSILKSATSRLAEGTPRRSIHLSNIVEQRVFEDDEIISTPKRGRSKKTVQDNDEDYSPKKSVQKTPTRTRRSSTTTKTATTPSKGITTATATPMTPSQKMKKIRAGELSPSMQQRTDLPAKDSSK

DmOrc1 IDR delta4 = target: T7, DmOrc1 IDR delta4 (Drosophila melanogaster, UniProt O16810 187-549, del367-426); assay: as above; conditions: protein: recombinant; tags: His6-MBP removed by TEV; blunt (60-bp duplex)
T7 sequence: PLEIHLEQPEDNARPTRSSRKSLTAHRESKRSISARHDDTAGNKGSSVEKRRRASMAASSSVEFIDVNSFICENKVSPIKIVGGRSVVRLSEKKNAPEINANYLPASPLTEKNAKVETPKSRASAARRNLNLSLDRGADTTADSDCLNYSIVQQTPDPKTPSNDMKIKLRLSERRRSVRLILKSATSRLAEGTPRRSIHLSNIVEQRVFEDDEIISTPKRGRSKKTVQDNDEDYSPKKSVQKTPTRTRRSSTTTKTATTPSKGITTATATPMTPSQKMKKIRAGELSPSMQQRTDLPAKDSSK

DmOrc1 IDR delta6 = target: T8, DmOrc1 IDR delta6 (Drosophila melanogaster, UniProt O16810 187-486, del487-549); assay: as above; conditions: protein: recombinant; tags: His6-MBP removed by TEV; blunt (60-bp duplex)
T8 sequence: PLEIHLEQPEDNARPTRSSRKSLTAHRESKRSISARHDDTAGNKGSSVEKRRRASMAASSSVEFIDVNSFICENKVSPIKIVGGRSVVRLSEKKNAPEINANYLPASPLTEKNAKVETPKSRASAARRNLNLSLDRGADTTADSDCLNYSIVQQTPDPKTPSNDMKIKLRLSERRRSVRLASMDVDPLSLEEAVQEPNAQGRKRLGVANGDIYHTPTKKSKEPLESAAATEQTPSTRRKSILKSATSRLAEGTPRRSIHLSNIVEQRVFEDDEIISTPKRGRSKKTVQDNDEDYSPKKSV

DmOrc1 IDR delta BP = target: T9, DmOrc1 IDR delta BP (Drosophila melanogaster, UniProt O16810 187-549, del520-533); assay: EMSA; text says FITC, legend Cy5; EMSA: 50 mM HEPES pH 7.5, 150 mM K-glutamate, 10% glycerol, 1 mM BME, 2 nM DNA, RT 20 min, 1% agarose; FP: same with 150 or 300 mM K-glutamate, 5 mM MgOAc, 0 or 1 mM ATP, RT 30 min; conditions: protein: recombinant; tags: His6-MBP removed by TEV; blunt (60-bp duplex)
T9 sequence: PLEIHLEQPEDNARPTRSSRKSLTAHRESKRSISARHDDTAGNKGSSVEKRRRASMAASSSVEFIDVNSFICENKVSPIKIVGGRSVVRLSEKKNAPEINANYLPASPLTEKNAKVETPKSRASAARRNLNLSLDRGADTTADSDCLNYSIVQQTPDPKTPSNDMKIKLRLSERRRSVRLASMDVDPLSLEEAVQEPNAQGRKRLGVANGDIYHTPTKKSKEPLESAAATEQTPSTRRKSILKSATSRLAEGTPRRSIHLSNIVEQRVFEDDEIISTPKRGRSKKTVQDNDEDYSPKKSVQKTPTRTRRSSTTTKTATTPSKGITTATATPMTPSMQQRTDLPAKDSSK

B1: Cy5-dsDNA 60 bp (dsDNA)
DNA 1: GAAGCTAGACTTAGGTGTCATATTGAACCTACTATGCCGAACTAGTTACGAGCTATAACC
DNA 2: GGTTATAGCTCGTAACTAGTTCGGCATAGTAGGTTCAATATGACACCTAAGTCTAGCTTC
- Kd (DmOrc1 IDR [1]): 21 nM
- Kd (DmOrc1 IDR [2]): 15 ± 4 nM
- binding result (DmOrc1 IDR delta P): binds
- Kd (DmOrc1 IDR delta1): < 100 nM
- Kd (DmOrc1 IDR delta5): < 100 nM
- Kd (DmOrc1 IDR delta3): < 100 nM
- Kd (DmOrc1 IDR delta2): < 100 nM
- Kd (DmOrc1 IDR delta4): 62 ± 26 nM
- Kd (DmOrc1 IDR delta6): < 100 nM
- Kd (DmOrc1 IDR delta BP): 8 ± 2 nM
